# According to US20210139545A1 (IBA, published 2021):
# B1: mutein m1-9 (designed binder)
# chain: EAGITGTWYNQLGSTFIVTAGADGALTGTYVTARGNAESRYVLTGRYDSAPATDGSGTALGWTVAWKNNYRNAHSATTWSGQYVGGAEARINTQWLLTSGTTEENAGYSTLVGHDTFTKVKPSAAS
# Tests used:
# [1] = biological target: T1, Green Fluorescent Protein with C-terminal Strep-tagII (Aequorea victoria (Water jellyfish) …, UniProt P42212 1-237 = GFP, limits assumed); test: SPR Biacore T100, mutein immobilised at 170 RU, 1:1 global fit
# T1 construct: also called GFP-StrepII; GFP-StrepIII
# Experimental: (§1) To achieve the immobilization at higher density, mutein m1-9 was used at a concentration of 20 μg/ml and mutein “1” was used at a concentration of 50 μg/ml. […] Prior to analysis, the fusion protein preparations were dialyzed against Buffer W (100 mM Tris-CI pH8, 150 mM NaCl, 1 mM EDTA), and checked via analytical size exclusion chromatography to be essentially free of aggregates (a content of max. 5% was accepted, in most cases it was below 1%) to ensure to measure the interaction of monovalent fusion proteins with immobilized streptavidin muteins only. […] Data were fitted using the kinetic global fit (Langmuir 1:1) and resulting on- and off-rates and deduced dissociation constants are shown in column 4, column 5 and column 6, respectively. BiaCore data were measured by Biaffin GmbH & Co KG, Kassel, Germany.
# [2] = biological target: T2, cytochrome b562 with C-terminally fused Strep-tagII (E. coli); test: as above
# T2 construct: also called Cytb562-StrepII; Cytb562-StrepIII
# Experimental: as §1
# [3] = biological target: T3, cytochrome b562 with C-terminal di-tag3 (E. coli); test: as above
# T3 construct: also called Cytb562-di-tag3
# Experimental: as §1
# [4] = biological target: T4, Green Fluorescent Protein with C-terminal di-tag3; test: as above
# T4 construct: also called GFP-di-tag3
# Experimental: as §1
# [5] = biological target: T1, Green Fluorescent Protein with …; test: SPR Biacore
# Experimental: (§2) The resulting relative immobilized amounts are given in RU (arbitrary units) (column 3). To achieve the low density immobilization both muteins were applied applied at a concentration of 1 μg/ml and a flow rate of 10 μl/min. To achieve the immobilization at higher density, mutein m1-9 was used at a concentration of 20 μg/ml and mutein “1” was used at a concentration of 50 μg/ml. […] Prior to analysis, the fusion protein preparations were dialyzed against Buffer W (100 mM Tris-CI pH8, 150 mM NaCl, 1 mM EDTA), and checked via analytical size exclusion chromatography to be essentially free of aggregates (a content of max. 5% was accepted, in most cases it was below 1%) to ensure to measure the interaction of monovalent fusion proteins with immobilized streptavidin muteins only.
# [6] = biological target: T2, cytochrome b562 with C-terminally fused …; test: SPR Biacore
# Experimental: as §2
# [7] = biological target: T1, Green Fluorescent Protein with …; test: SPR Biacore T100, mutein immobilised at 4350 RU, 1:1 global fit
# Experimental: as §1
# [8] = biological target: T2, cytochrome b562 with C-terminally fused …; test: as above
# Experimental: as §1
# [9] = biological target: T3, cytochrome b562 with C-terminal di-tag3; test: as above
# Experimental: as §1
# [10] = biological target: T4, Green Fluorescent Protein with …; test: as above
# Experimental: as §1
# [11] = biological target: T5, E. coli alkaline phosphatase Strep-tag®II fusion protein (E. coli, UniProt P00634 22-471 = phosphatase); test: ELISA, second experiment, mutein coated, BAP-StrepII titrated
# T5 construct: mature; also called BAP-StrepII; BAP-StrepIII
binder,measurement,setting,value
B1,Kd,[1],32 nM
same,koff,[1],0.0047 s⁻¹
same,kon,[1],150000 M⁻¹ s⁻¹
same,Kd,[2],586 nM
same,koff,[2],0.041 s⁻¹
same,kon,[2],70000 M⁻¹ s⁻¹
same,Kd,[3],0.014 nM
same,koff,[3],1.5e-05 s⁻¹
same,kon,[3],1e+06 M⁻¹ s⁻¹
same,Kd,[4],0.053 nM
same,koff,[4],1.5e-05 s⁻¹
same,kon,[4],280000 M⁻¹ s⁻¹
same,affinity increase relative to mutein “1”,[5],~10 fold
same,affinity increase relative to mutein “1”,[6],~30 fold
same,Kd,[7],23 nM
same,koff,[7],0.0038 s⁻¹
same,kon,[7],170000 M⁻¹ s⁻¹
same,Kd,[8],485 nM
same,koff,[8],0.025 s⁻¹
same,kon,[8],52000 M⁻¹ s⁻¹
same,Kd,[9],0.043 nM
same,koff,[9],1.9e-05 s⁻¹
same,kon,[9],440000 M⁻¹ s⁻¹
same,Kd,[10],0.079 nM
same,koff,[10],1.7e-05 s⁻¹
same,kon,[10],220000 M⁻¹ s⁻¹
same,(Δ(A405-A595)/Δt)max,[11],1700 mOD
same,Kd,[11],25 nM
